Article PMC9097876 (Science Immunology, 2022)

Columns and labels:
Details in all cases: both partners purified
[1] = biological target: T1, SARS-CoV-2 spike receptor-binding domain (RBD), Delta variant (SARS-CoV-2, Delta variant (B.1.617.2), L452R | T478K); test: BLI
T1 construct: not shown: His tag, C-terminal, kept

[2] = biological target: T2, SARS-CoV-2 spike receptor-binding domain (RBD), Wuhan isolate (SARS-CoV-2, Wuhan, UniProt P0DTC2); test: BLI
T2 construct: not shown: His tag, C-terminal, kept

[3] = biological target: T3, SARS-CoV-2 spike receptor-binding domain (RBD), Alpha variant (SARS-CoV-2, Alpha variant (B.1.1.7), N501Y); test: BLI
T3 construct: not shown: His tag, C-terminal, kept

[4] = biological target: T4, SARS-CoV-2 spike receptor-binding domain (RBD), Delta variant (SARS-CoV-2, Delta variant (B.1.617.2), L452R | T478K); test: BLI; remark: listed apart in the source
T4 construct: not shown: His tag, C-terminal, kept

[5] = biological target: T5, SARS-CoV-2 spike receptor-binding domain (RBD), Gamma variant (SARS-CoV-2, Gamma (P.1), E484K | N501Y); test: BLI
T5 construct: not shown: His tag, C-terminal, kept

[6] = biological target: SARS-CoV-2 spike hexapro, prefusion stabilized spike ectodomain trimer (SARS-CoV-2, Wuhan, UniProt P0DTC2, stabilised); test: cryo-EM structure
[7] = biological target: T6, SARS-CoV-2 spike receptor-binding domain (RBD), Alpha variant (SARS-CoV-2, Alpha variant (B.1.1.7), N501Y); test: BLI; remark: listed apart in the source
T6 construct: not shown: His tag, C-terminal, kept

[8] = biological target: T7, SARS-CoV-2 spike receptor-binding domain (RBD), Gamma variant (SARS-CoV-2, Gamma variant (P.1), E484K | N501Y); test: BLI
T7 construct: not shown: His tag, C-terminal, kept

Binder | Kd [1] [nM] | koff [1] [s⁻¹] | kon [1] [M⁻¹ s⁻¹] | Kd [2] [nM] | Kd [3] [nM] | Kd [4] [nM] | Kd [5] [nM] | binding result [6] | koff [7] [s⁻¹] | kon [7] [M⁻¹ s⁻¹] | koff [8] [s⁻¹] | kon [8] [M⁻¹ s⁻¹]
C98C7 Fab (Fab, V domains shown) VH: EVQLVESGGGLVQPGGSLRLSCAASGITVSSNYMSWVRQAPGKGLEWVSVIYSGGSTFYADSVKGRFTISRDNSKNTLYLQMSSLRAEDTAVYYCARDLVVFGMDVWGQGTTVTVSS VL: EIVLTQSPGTLSLSPGETATLSCRASQSVGSSYLTWYQQKPGQAPRLLIYGASSRATGIPDRFSGSGSGTDFTLTISRLEPEDFAVYYCQHYGSSPTFGQGTKVEIK [C98C7 Fab, listing 1 of 2 here] | 3.5 | 0.00099 | 280000 | – | – | – | – | – | – | – | – | –
C98C7 Fab (Fab, V domains shown) VH: EVQLVESGGGLVQPGGSLRLSCAASGITVSSNYMSWVRQAPGKGLEWVSVIYSGGSTFYADSVKGRFTISRDNSKNTLYLQMSSLRAEDTAVYYCARDLVVFGMDVWGQGTTVTVSS VL: EIVLTQSPGTLSLSPGETATLSCRASQSVGSSYLTWYQQKPGQAPRLLIYGASSRATGIPDRFSGSGSGTDFTLTISRLEPEDFAVYYCQHYGSSPTFGQGTKVEIK [C98C7 Fab, listing 2 of 2 here] | – | – | – | 3 | 6 | 3 | 1 | binds | – | – | – | –
G32Q4 Fab (Fab, V domains shown) VH: QVQLVESGGGVVQPGRSLRLSCAASGFTFSRYAMQWVRQAPGKGLEWVAVISYDGNNRYYADSVKGRFTISRDNSKNTLYLQMNSLRAEDTAVYYCARGPPGYYDSSGYYQTPEYFQHWGQGTLVTVSS VL: QSVLTQPPSVSGAPGQRVTISCTGSSSNIGVGYDVHWYQQFPGTVPKLLIYGNSNRPSGVPDRFSGSKSGTSASLAITGLQAEDEADYYCQSYDSSLSGVVFGGGTKLTVL [G32Q4 Fab, listing 1 of 2 here] | – | 0.0062 | 1.2e+06 | – | – | – | – | – | 0.007 | 930000 | 0.0025 | 2e+06
G32Q4 Fab (Fab, V domains shown) VH: QVQLVESGGGVVQPGRSLRLSCAASGFTFSRYAMQWVRQAPGKGLEWVAVISYDGNNRYYADSVKGRFTISRDNSKNTLYLQMNSLRAEDTAVYYCARGPPGYYDSSGYYQTPEYFQHWGQGTLVTVSS VL: QSVLTQPPSVSGAPGQRVTISCTGSSSNIGVGYDVHWYQQFPGTVPKLLIYGNSNRPSGVPDRFSGSKSGTSASLAITGLQAEDEADYYCQSYDSSLSGVVFGGGTKLTVL [G32Q4 Fab, listing 2 of 2 here] | – | – | – | 57 | 75 | 53 | 13 | binds | – | – | – | –
